According to the supplement of paper PMC9112550, “Optimization of the antimicrobial peptide Bac7 by deep mutational scanning” (BMC Biology, 2022):

System: Escherichia coli TOP10
Experiment: shrunken log2 fold change of peptide-encoding DNA abundance (4.5 h post-induction vs induction); higher = less antimicrobial activity (less host growth inhibition)
Settings: time post-induction: 4.5 h; library: site-saturation at positions 5, 18, 19, 20
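Note: peptides expressed intracellularly from a pBAD plasmid library in pooled LB shake-flask culture, induced with 0.3% L-arabinose, DNA abundance read by NGS, three biological replicates, DESeq2 with apeglm shrinkage.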

Q: How did the “shrunken log2 fold change” value turn out when RRIRHRPPRLPRPRPRPYPAPRP was run?
A: Its value is -0.425.

Q: RRIRMRPPRLPRPRPRPVWWPRP was tested. Which “shrunken log2 fold change” value did it give?
A: The value was -0.0717.

Q: How did the “shrunken log2 fold change” value turn out when RRIRSRPPRLPRPRPRPPFTPRP was run?
A: The value was -0.00795.

Q: Which “shrunken log2 fold change” value does the source give for RRIRGRPPRLPRPRPRPSLPPRP here?
A: The value was 0.178.

Q: With RRIRIRPPRLPRPRPRPTELPRP as the sequence, how does the “shrunken log2 fold change” value read?
A: Its value is -0.0944.

Q: With RRIRHRPPRLPRPRPRPRKAPRP as the sequence, how does the “shrunken log2 fold change” value read?
A: The value was -0.0445.

Q: Which “shrunken log2 fold change” value does the source give for RRIRKRPPRLPRPRPRPYLWPRP here?
A: The value was 0.125.

Q: For RRIRARPPRLPRPRPRPHNCPRP, which “shrunken log2 fold change” value is on record?
A: The value was -0.162.

Q: How did the “shrunken log2 fold change” value turn out when RRIRWRPPRLPRPRPRPVLNPRP was run?
A: The value was 0.116.

Q: With RRIRSRPPRLPRPRPRPLWNPRP as the sequence, how does the “shrunken log2 fold change” value read?
A: The value was -0.25.

Q: Which “shrunken log2 fold change” value does the source give for RRIRNRPPRLPRPRPRPFHHPRP here?
A: Its value is -0.27.

Q: Which “shrunken log2 fold change” value does the source give for RRIRVRPPRLPRPRPRPDEKPRP here?
A: Its value is 0.11.

Q: RRIRRRPPRLPRPRPRPLYCPRP was tested. Which “shrunken log2 fold change” value did it give?
A: The value was -0.115.

Q: Which “shrunken log2 fold change” value does the source give for RRIRLRPPRLPRPRPRPTPRPRP here?
A: Its value is 0.763.

Q: With RRIRFRPPRLPRPRPRPQCDPRP as the sequence, how does the “shrunken log2 fold change” value read?
A: The value was -0.388.

Q: Which “shrunken log2 fold change” value does the source give for RRIRLRPPRLPRPRPRPFGWPRP here?
A: Its value is 0.0538.

Q: How did the “shrunken log2 fold change” value turn out when RRIRTRPPRLPRPRPRPRGDPRP was run?
A: Its value is 0.409.

Q: How did the “shrunken log2 fold change” value turn out when RRIRRRPPRLPRPRPRPTQGPRP was run?
A: The value was 0.935.

Q: With RRIRYRPPRLPRPRPRPLTAPRP as the sequence, how does the “shrunken log2 fold change” value read?
A: The value was -0.492.

Q: How did the “shrunken log2 fold change” value turn out when RRIRIRPPRLPRPRPRPRHAPRP was run?
A: The value was 0.128.

Q: With RRIRKRPPRLPRPRPRPWWHPRP as the sequence, how does the “shrunken log2 fold change” value read?
A: Its value is 0.047.

Q: With RRIRMRPPRLPRPRPRPTTVPRP as the sequence, how does the “shrunken log2 fold change” value read?
A: Its value is 0.376.

Q: How did the “shrunken log2 fold change” value turn out when RRIRWRPPRLPRPRPRPSQLPRP was run?
A: Its value is -0.375.

Q: For RRIRYRPPRLPRPRPRPLHHPRP, which “shrunken log2 fold change” value is on record?
A: The value was -1.14.

Q: How did the “shrunken log2 fold change” value turn out when RRIRVRPPRLPRPRPRPLDYPRP was run?
A: The value was -0.244.

Q: With RRIRYRPPRLPRPRPRPIDYPRP as the sequence, how does the “shrunken log2 fold change” value read?
A: The value was -0.0298.

Q: How did the “shrunken log2 fold change” value turn out when RRIRDRPPRLPRPRPRPDSAPRP was run?
A: The value was -0.0433.

Q: RRIRNRPPRLPRPRPRPVFKPRP was tested. Which “shrunken log2 fold change” value did it give?
A: The value was -0.183.

Q: Which “shrunken log2 fold change” value does the source give for RRIRYRPPRLPRPRPRPFRYPRP here?
A: The value was -0.315.

Q: For RRIRPRPPRLPRPRPRPHFGPRP, which “shrunken log2 fold change” value is on record?
A: The value was 0.0675.

Q: Which “shrunken log2 fold change” value does the source give for RRIRTRPPRLPRPRPRPGDKPRP here?
A: The value was 0.137.

Q: RRIRPRPPRLPRPRPRPPMMPRP was tested. Which “shrunken log2 fold change” value did it give?
A: The value was 0.0805.

Q: With RRIRLRPPRLPRPRPRPRAEPRP as the sequence, how does the “shrunken log2 fold change” value read?
A: The value was 0.0944.

Q: With RRIRDRPPRLPRPRPRPYQYPRP as the sequence, how does the “shrunken log2 fold change” value read?
A: The value was -0.0404.

Q: RRIRHRPPRLPRPRPRPDQDPRP was tested. Which “shrunken log2 fold change” value did it give?
A: Its value is -0.0366.

Q: How did the “shrunken log2 fold change” value turn out when RRIRYRPPRLPRPRPRPCAKPRP was run?
A: Its value is -0.374.

Q: For RRIRARPPRLPRPRPRPDSWPRP, which “shrunken log2 fold change” value is on record?
A: The value was 0.508.

Q: Which “shrunken log2 fold change” value does the source give for RRIRHRPPRLPRPRPRPVMDPRP here?
A: The value was 0.153.

Q: How did the “shrunken log2 fold change” value turn out when RRIRERPPRLPRPRPRPDNKPRP was run?
A: The value was -0.75.

Q: Which “shrunken log2 fold change” value does the source give for RRIRKRPPRLPRPRPRPPAEPRP here?
A: The value was 1.07.

Q: How did the “shrunken log2 fold change” value turn out when RRIRFRPPRLPRPRPRPPEEPRP was run?
A: Its value is 0.153.

Q: How did the “shrunken log2 fold change” value turn out when RRIRNRPPRLPRPRPRPEWQPRP was run?
A: The value was -0.0264.

Q: How did the “shrunken log2 fold change” value turn out when RRIRTRPPRLPRPRPRPWLQPRP was run?
A: Its value is -0.187.

Q: With RRIRMRPPRLPRPRPRPVQVPRP as the sequence, how does the “shrunken log2 fold change” value read?
A: Its value is -0.00884.

Q: For RRIRMRPPRLPRPRPRPQMIPRP, which “shrunken log2 fold change” value is on record?
A: Its value is -0.0999.

Q: RRIRMRPPRLPRPRPRPGEDPRP was tested. Which “shrunken log2 fold change” value did it give?
A: The value was 0.118.

Q: With RRIRGRPPRLPRPRPRPKAWPRP as the sequence, how does the “shrunken log2 fold change” value read?
A: Its value is 0.922.

Q: RRIRDRPPRLPRPRPRPEVNPRP was tested. Which “shrunken log2 fold change” value did it give?
A: The value was 0.0354.

Q: How did the “shrunken log2 fold change” value turn out when RRIRSRPPRLPRPRPRPMSGPRP was run?
A: Its value is 0.131.

Q: How did the “shrunken log2 fold change” value turn out when RRIRFRPPRLPRPRPRPMNQPRP was run?
A: Its value is -0.528.

Q: For RRIRDRPPRLPRPRPRPMITPRP, which “shrunken log2 fold change” value is on record?
A: Its value is -0.115.

Q: For RRIRNRPPRLPRPRPRPYPTPRP, which “shrunken log2 fold change” value is on record?
A: Its value is -0.074.

Q: With RRIRFRPPRLPRPRPRPNMLPRP as the sequence, how does the “shrunken log2 fold change” value read?
A: Its value is -0.669.

Q: RRIRCRPPRLPRPRPRPGIDPRP was tested. Which “shrunken log2 fold change” value did it give?
A: Its value is 0.0673.

Q: Which “shrunken log2 fold change” value does the source give for RRIRCRPPRLPRPRPRPSHHPRP here?
A: Its value is -0.603.

Q: RRIRIRPPRLPRPRPRPVRFPRP was tested. Which “shrunken log2 fold change” value did it give?
A: Its value is -0.16.

Q: Which “shrunken log2 fold change” value does the source give for RRIRERPPRLPRPRPRPCVAPRP here?
A: Its value is 0.258.

Q: RRIRQRPPRLPRPRPRPGCSPRP was tested. Which “shrunken log2 fold change” value did it give?
A: Its value is 0.0894.

Q: Which “shrunken log2 fold change” value does the source give for RRIRRRPPRLPRPRPRPYQQPRP here?
A: The value was -0.000903.

Q: For RRIRWRPPRLPRPRPRPDYHPRP, which “shrunken log2 fold change” value is on record?
A: Its value is -0.219.

Q: RRIRRRPPRLPRPRPRPKMLPRP was tested. Which “shrunken log2 fold change” value did it give?
A: Its value is 0.161.

Q: How did the “shrunken log2 fold change” value turn out when RRIRERPPRLPRPRPRPLMRPRP was run?
A: The value was 0.839.

Q: RRIRWRPPRLPRPRPRPFIWPRP was tested. Which “shrunken log2 fold change” value did it give?
A: The value was 0.205.

Q: RRIRSRPPRLPRPRPRPQSAPRP was tested. Which “shrunken log2 fold change” value did it give?
A: The value was 0.108.

Q: How did the “shrunken log2 fold change” value turn out when RRIRARPPRLPRPRPRPRTMPRP was run?
A: The value was 0.403.

Q: Which “shrunken log2 fold change” value does the source give for RRIRWRPPRLPRPRPRPNQTPRP here?
A: Its value is 0.0653.

Q: RRIRPRPPRLPRPRPRPQEQPRP was tested. Which “shrunken log2 fold change” value did it give?
A: Its value is -0.0215.

Q: How did the “shrunken log2 fold change” value turn out when RRIRPRPPRLPRPRPRPGFVPRP was run?
A: The value was 0.143.

Q: How did the “shrunken log2 fold change” value turn out when RRIRERPPRLPRPRPRPQMIPRP was run?
A: Its value is 0.132.

Q: RRIRDRPPRLPRPRPRPVMNPRP was tested. Which “shrunken log2 fold change” value did it give?
A: The value was -0.343.

Q: How did the “shrunken log2 fold change” value turn out when RRIRRRPPRLPRPRPRPHQAPRP was run?
A: The value was -0.019.

Q: For RRIRFRPPRLPRPRPRPPIWPRP, which “shrunken log2 fold change” value is on record?
A: The value was 0.317.

Q: RRIRQRPPRLPRPRPRPNELPRP was tested. Which “shrunken log2 fold change” value did it give?
A: The value was -0.24.

Q: How did the “shrunken log2 fold change” value turn out when RRIRVRPPRLPRPRPRPPWSPRP was run?
A: The value was 0.161.

Q: RRIRHRPPRLPRPRPRPFWPPRP was tested. Which “shrunken log2 fold change” value did it give?
A: The value was 0.131.
